This passage reports Kd results from paper PMC9035508.

Holding throughout (assay): ELISA; FXIII proteins or collagen type III coated on wells at 10 µg/mL (overnight, 4°C), blocked with 0.5% BSA; GPVI-Fc2 added at varied concentrations; bound GPVI detected by 1G5/IRDye 800CW anti-mouse antibody; KD from binding curves (Figure 1B)
On the technique in general: An ELISA detects its analyte on a solid surface through an enzyme-linked reagent.

In experiment [1] the target is Plasma FXIII (FXIIIA2B2), tetrameric, not activated (human) (UniProt P00488).
The target in another experiment is collagen type III (UniProt P02461).
Experiment [2] has as its target FXIII A-subunit (rh-FXIIIA2), recombinant, not fully activated form (human) (UniProt P00488).
Experiment [3] has as its target FXIII A-subunit (activated) (rh-FXIIIAa), thrombin-activated form of rh-FXIIIA2 (human) (UniProt P00488).

Sequence of UniProt P02461 (P02461 24-1221): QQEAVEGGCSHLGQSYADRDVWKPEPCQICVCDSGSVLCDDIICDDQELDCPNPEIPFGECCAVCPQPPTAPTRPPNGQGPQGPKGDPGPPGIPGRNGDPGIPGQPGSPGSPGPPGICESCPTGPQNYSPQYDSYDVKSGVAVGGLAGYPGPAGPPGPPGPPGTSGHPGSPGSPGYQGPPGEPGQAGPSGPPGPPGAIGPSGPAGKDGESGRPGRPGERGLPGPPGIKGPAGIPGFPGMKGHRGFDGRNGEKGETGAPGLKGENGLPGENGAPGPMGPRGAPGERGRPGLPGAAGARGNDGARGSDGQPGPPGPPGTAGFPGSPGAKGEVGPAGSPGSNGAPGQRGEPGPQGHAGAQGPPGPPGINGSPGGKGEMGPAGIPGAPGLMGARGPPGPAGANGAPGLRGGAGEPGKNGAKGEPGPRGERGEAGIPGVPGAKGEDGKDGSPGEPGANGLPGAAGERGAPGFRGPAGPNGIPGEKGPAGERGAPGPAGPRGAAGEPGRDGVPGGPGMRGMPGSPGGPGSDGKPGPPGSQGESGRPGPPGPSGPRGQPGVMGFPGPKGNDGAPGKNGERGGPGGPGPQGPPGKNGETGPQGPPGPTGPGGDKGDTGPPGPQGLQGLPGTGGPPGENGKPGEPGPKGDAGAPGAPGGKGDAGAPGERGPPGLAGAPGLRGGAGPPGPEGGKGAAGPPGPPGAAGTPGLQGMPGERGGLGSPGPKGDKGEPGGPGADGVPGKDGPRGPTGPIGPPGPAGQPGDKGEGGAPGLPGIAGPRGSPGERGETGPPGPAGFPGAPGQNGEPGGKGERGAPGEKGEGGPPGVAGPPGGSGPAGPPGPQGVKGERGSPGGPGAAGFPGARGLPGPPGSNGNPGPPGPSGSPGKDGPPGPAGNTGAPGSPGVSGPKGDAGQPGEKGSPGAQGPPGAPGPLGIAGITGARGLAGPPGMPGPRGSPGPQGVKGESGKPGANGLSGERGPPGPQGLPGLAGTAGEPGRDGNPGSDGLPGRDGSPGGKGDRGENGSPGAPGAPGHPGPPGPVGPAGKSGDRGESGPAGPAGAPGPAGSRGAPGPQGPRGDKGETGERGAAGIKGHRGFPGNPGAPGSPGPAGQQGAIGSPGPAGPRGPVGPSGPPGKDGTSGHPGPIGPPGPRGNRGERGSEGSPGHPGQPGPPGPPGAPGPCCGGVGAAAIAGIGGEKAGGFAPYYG

Turning to “GPVI-Fc2 (recombinant human GPVI extracellular domain, dimer) (from UniProt Q9HCN6 21-267) (Fc fusion)”, the dissociation constant (Kd) in experiment [1] stood at 216 nM; with collagen type III, 183 nM; in experiment [2], 366 nM; in experiment [3], 140 nM.

As usually defined, the Kd is the constant that tells how readily two partners part at equilibrium.
